Data on two molecules can be found in publication PMC4012331 (Biochimica et biophysica acta, 2013).

Usually Kd stands for a measure of binding affinity in units of concentration. High values mean weaker binding, low ones tighter binding.

Test [1] has as its target T1, flavodoxin (Fld); apo-Fld (Escherichia coli, UniProt P61949).
T1 sequence (P61949 2-176): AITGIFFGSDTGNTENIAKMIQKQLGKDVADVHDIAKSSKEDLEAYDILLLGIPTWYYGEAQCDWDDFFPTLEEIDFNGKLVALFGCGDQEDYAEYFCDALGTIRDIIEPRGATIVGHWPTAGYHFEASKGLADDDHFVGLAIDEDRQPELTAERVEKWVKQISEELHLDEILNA
Nature of the test: isothermal titration calorimetry. The format is binding. Background: Isothermal titration calorimetry measures the heat released or taken up as one component is titrated into another.

Test [2] has as its target NADP+-dependent flavodoxin oxidoreductase (FNR), Escherichia coli (E. coli) (UniProt P28861). Nature of the test: SPR. In general terms: SPR reads the build-up and loss of mass on a sensor chip optically.
Test [3] addresses pyruvate formate-lyase activating enzyme (PFL-AE), Escherichia coli (Escherichia coli) (UniProt P0A9N6). Nature of the test: SPR.

Chain of pyruvate formate-lyase activating enzyme (PFL-AE), Escherichia coli (Escherichia coli) (P0A9N6 2-246): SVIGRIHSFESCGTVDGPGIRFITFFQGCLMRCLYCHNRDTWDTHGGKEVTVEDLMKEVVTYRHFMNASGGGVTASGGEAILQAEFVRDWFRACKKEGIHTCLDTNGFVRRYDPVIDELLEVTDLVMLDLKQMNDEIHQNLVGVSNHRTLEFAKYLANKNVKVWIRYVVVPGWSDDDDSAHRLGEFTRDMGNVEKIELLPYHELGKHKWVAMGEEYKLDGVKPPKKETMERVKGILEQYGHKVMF
Chain of NADP+-dependent flavodoxin oxidoreductase (FNR), Escherichia coli (E. coli) (P28861 whole entry): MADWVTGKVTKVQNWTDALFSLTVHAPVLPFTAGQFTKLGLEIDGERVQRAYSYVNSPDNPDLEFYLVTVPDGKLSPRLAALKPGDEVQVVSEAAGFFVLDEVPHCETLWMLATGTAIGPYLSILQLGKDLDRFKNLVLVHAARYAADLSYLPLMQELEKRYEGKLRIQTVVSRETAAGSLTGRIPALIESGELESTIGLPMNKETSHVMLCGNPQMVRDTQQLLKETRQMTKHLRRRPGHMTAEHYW

Regarding `Cc1cc2nc3c(=O)[nH]c(=O)nc-3n(C[C@H](O)[C@H](O)[C@H](O)COP(=O)(O)O)c2cc1C` [FMN], the Kd in test [1] came out at 0.0056 ± 0.0012 µM.
For “holo-flavodoxin (Fld with bound FMN cofactor), Escherichia coli (from UniProt P61949 2-176) (natural protein)”, the Kd in test [2] was 3.7 µM; in test [3], 23.3 µM.
